Laboratory results reported in publication PMC5775914 (Cell chemical biology, 2017).

Biological target: fluorescein-labeled histone H3 N-terminal peptide (residues 1-21) (UniProt P68431 2-22, fluorescein-labeled (position not given))
Test: fluorescence polarisation

- Kd: 50 to 100 µM
B1: recombinant UBR7 PHD finger (domain or fragment)
chain: GLYCICKRPYPDPEDEIPDEMIQCVVCEDWFHGRHLGAIPPESGDFQEMVCQACMKR
